Assay results published in PMC11190312.

How the values were obtained:
[1] = target: SARS-CoV-2 N protein secreted by mammalian Expi293 cells (N-Expi) (SARS-CoV-2) (UniProt P0DTC9); assay: SPR; single cycle kinetics, […]; global fit to 1:1 Langmuir model; […]
[2] = target: SARS-CoV-2 N protein expressed in bacteria (N-Bact) (SARS-CoV-2) (UniProt P0DTC9); assay: as above

For “Recombinant human MASP-2 S618A, full-length, stabilized in proenzyme form”, the Kd [1] was 13.7 nM, the koff [1] was 0.000172 s⁻¹ and the kon [1] was 14400 M⁻¹ s⁻¹. The Kd [2] was 12.3 nM, the koff [2] was 0.00015 s⁻¹ and the kon [2] was 13900 M⁻¹ s⁻¹.
